Paper PMC2190859

Biological target: collagen
Assay: cell adhesion assay

Substance: very late antigen 4 (VLA-4, alpha4 beta1 integrin) (from UniProt P13612;P05556) (receptor)
- percent of cells binding: < 5%
